Data from the Human Domainome abundance scans (Beltran et al. 2025).
± gives the uncertainty stated by the source.

B1: Lysine-specific demethylase 2B, residues 656 to 722; numbered along this chain, Q8NHM5 (parent)
chain: LPHTAVCLVCGEAGKEDTVEEEEGKFNLMLMECSICNEIIHPGCLKIKESEGVVNDELPNCWECPKC

Variants of: B1
Test: abundance fitness (aPCA) (normalised: wild type 0, dead -1); higher = more abundant; growth selection in yeast, the domain comes from the species named
Conditions: Homo sapiens

Variant	abundance fitness
LPHTAVCLVCGEAGKEDTVECEEGKFNLMLMECSICNEIIHPGCLKIKESEGVVNDELPNCWECPKC	-0.068 ± 0.17
LPHTAVCLVCGEAGKEDTVEDEEGKFNLMLMECSICNEIIHPGCLKIKESEGVVNDELPNCWECPKC	-0.028 ± 0.22
LPHTAVCLVCGEAGKEDTVEGEEGKFNLMLMECSICNEIIHPGCLKIKESEGVVNDELPNCWECPKC	0.12 ± 0.1
LPHTAVCLVCGEAGKEDTVEFEEGKFNLMLMECSICNEIIHPGCLKIKESEGVVNDELPNCWECPKC	-0.559 ± 0.48
LPHTAVCLVCGEAGKEDTVETEEGKFNLMLMECSICNEIIHPGCLKIKESEGVVNDELPNCWECPKC	0.238 ± 0.11
LPHTAVCLVCGEAGKEDTVEHEEGKFNLMLMECSICNEIIHPGCLKIKESEGVVNDELPNCWECPKC	0.264 ± 0.26
LPHTAVCLVCGEAGKEDTVEREEGKFNLMLMECSICNEIIHPGCLKIKESEGVVNDELPNCWECPKC	0.034 ± 0.099
LPHTAVCLVCGEAGKEDTVEIEEGKFNLMLMECSICNEIIHPGCLKIKESEGVVNDELPNCWECPKC	-0.566 ± 0.3
LPHTAVCLVCGEAGKEDTVEPEEGKFNLMLMECSICNEIIHPGCLKIKESEGVVNDELPNCWECPKC	0.033 ± 0.15
LPHTAVCLVCGEAGKEDTVEAEEGKFNLMLMECSICNEIIHPGCLKIKESEGVVNDELPNCWECPKC	0.107 ± 0.1
LPHTAVCLVCGEAGKEDTVELEEGKFNLMLMECSICNEIIHPGCLKIKESEGVVNDELPNCWECPKC	-0.284 ± 0.082
LPHTAVCLVCGEAGKEDTVEQEEGKFNLMLMECSICNEIIHPGCLKIKESEGVVNDELPNCWECPKC	-0.324 ± 0.19
LPHTAVCLVCGEAGKEDTVEWEEGKFNLMLMECSICNEIIHPGCLKIKESEGVVNDELPNCWECPKC	-0.354 ± 0.11
LPHTAVCLVCGEAGKEDTVEYEEGKFNLMLMECSICNEIIHPGCLKIKESEGVVNDELPNCWECPKC	-0.035 ± 0.31
LPHTAVCLVCGEAGKEDTVEMEEGKFNLMLMECSICNEIIHPGCLKIKESEGVVNDELPNCWECPKC	-0.062 ± 0.12
LPHTAVCLVCGEAGKEDTVEVEEGKFNLMLMECSICNEIIHPGCLKIKESEGVVNDELPNCWECPKC	0.06 ± 0.11
LPHTAVCLVCGEAGKEDTVEKEEGKFNLMLMECSICNEIIHPGCLKIKESEGVVNDELPNCWECPKC	0.022 ± 0.13
LPHTAVCLVCGEAGKEDTVESEEGKFNLMLMECSICNEIIHPGCLKIKESEGVVNDELPNCWECPKC	0.305 ± 0.068
LPHTAVCLVCGEAGKEDNVEEEEGKFNLMLMECSICNEIIHPGCLKIKESEGVVNDELPNCWECPKC	-0.026 ± 0.27
LPHTAVCLVCGEAGKEDEVEEEEGKFNLMLMECSICNEIIHPGCLKIKESEGVVNDELPNCWECPKC	-0.471 ± 0.17
LPHTAVCLVCGEAGKEDPVEEEEGKFNLMLMECSICNEIIHPGCLKIKESEGVVNDELPNCWECPKC	-0.268 ± 0.13
LPHTAVCLVCGEAGKEDIVEEEEGKFNLMLMECSICNEIIHPGCLKIKESEGVVNDELPNCWECPKC	-0.14 ± 0.11
LPHTAVCLVCGEAGKEDGVEEEEGKFNLMLMECSICNEIIHPGCLKIKESEGVVNDELPNCWECPKC	-0.399 ± 0.088
LPHTAVCLVCGEAGKEDLVEEEEGKFNLMLMECSICNEIIHPGCLKIKESEGVVNDELPNCWECPKC	-0.042 ± 0.094
LPHTAVCLVCGEAGKEDKVEEEEGKFNLMLMECSICNEIIHPGCLKIKESEGVVNDELPNCWECPKC	-0.131 ± 0.15
LPHTAVCLVCGEAGKEDQVEEEEGKFNLMLMECSICNEIIHPGCLKIKESEGVVNDELPNCWECPKC	-0.062 ± 0.095
LPHTAVCLVCGEAGKEDFVEEEEGKFNLMLMECSICNEIIHPGCLKIKESEGVVNDELPNCWECPKC	-0.113 ± 0.11

Variant	abundance fitness
LPHTAVCLVCGEAGKEDRVEEEEGKFNLMLMECSICNEIIHPGCLKIKESEGVVNDELPNCWECPKC	-0.188 ± 0.081
LPHTAVCLVCGEAGKEDWVEEEEGKFNLMLMECSICNEIIHPGCLKIKESEGVVNDELPNCWECPKC	-0.331 ± 0.12
LPHTAVCLVCGEAGKEDMVEEEEGKFNLMLMECSICNEIIHPGCLKIKESEGVVNDELPNCWECPKC	-0.092 ± 0.18
LPHTAVCLVCGEAGKEDYVEEEEGKFNLMLMECSICNEIIHPGCLKIKESEGVVNDELPNCWECPKC	-0.427 ± 0.29
LPHTAVCLVCGEAGKEDVVEEEEGKFNLMLMECSICNEIIHPGCLKIKESEGVVNDELPNCWECPKC	-0.569 ± 0.15
LPHTAVCLVCGEAGKEDTVEEHEGKFNLMLMECSICNEIIHPGCLKIKESEGVVNDELPNCWECPKC	-0.099 ± 0.12
LPHTAVCLVCGEAGKEDTVEEWEGKFNLMLMECSICNEIIHPGCLKIKESEGVVNDELPNCWECPKC	-0.308 ± 0.12
LPHTAVCLVCGEAGKEDTVEEQEGKFNLMLMECSICNEIIHPGCLKIKESEGVVNDELPNCWECPKC	0.086 ± 0.12
LPHTAVCLVCGEAGKEDTVEEDEGKFNLMLMECSICNEIIHPGCLKIKESEGVVNDELPNCWECPKC	-0.153 ± 0.19
LPHTAVCLVCGEAGKEDTVEEMEGKFNLMLMECSICNEIIHPGCLKIKESEGVVNDELPNCWECPKC	0.113 ± 0.1
LPHTAVCLVCGEAGKEDTVEEYEGKFNLMLMECSICNEIIHPGCLKIKESEGVVNDELPNCWECPKC	-0.291 ± 0.42
LPHTAVCLVCGEAGKEDTVEELEGKFNLMLMECSICNEIIHPGCLKIKESEGVVNDELPNCWECPKC	-0.011 ± 0.066
LPHTAVCLVCGEAGKEDTVEEKEGKFNLMLMECSICNEIIHPGCLKIKESEGVVNDELPNCWECPKC	0.261 ± 0.12
LPHTAVCLVCGEAGKEDTVEEIEGKFNLMLMECSICNEIIHPGCLKIKESEGVVNDELPNCWECPKC	-0.131 ± 0.34
LPHTAVCLVCGEAGKEDTVEEAEGKFNLMLMECSICNEIIHPGCLKIKESEGVVNDELPNCWECPKC	0.032 ± 0.087
LPHTAVCLVCGEAGKEDTVEENEGKFNLMLMECSICNEIIHPGCLKIKESEGVVNDELPNCWECPKC	-0.162 ± 0.29
LPHTAVCLVCGEAGKEDTVEEPEGKFNLMLMECSICNEIIHPGCLKIKESEGVVNDELPNCWECPKC	-0.449 ± 0.23
LPHTAVCLVCGEAGKEDTVEECEGKFNLMLMECSICNEIIHPGCLKIKESEGVVNDELPNCWECPKC	-0.235 ± 0.23
LPHTAVCLVCGEAGKEDTVEESEGKFNLMLMECSICNEIIHPGCLKIKESEGVVNDELPNCWECPKC	-0.01 ± 0.088
LPHTAVCLVCGEAGKEDTVEEGEGKFNLMLMECSICNEIIHPGCLKIKESEGVVNDELPNCWECPKC	-0.009 ± 0.057
LPHTAVCLVCGEAGKEDTVEETEGKFNLMLMECSICNEIIHPGCLKIKESEGVVNDELPNCWECPKC	0.171 ± 0.11
LPHTAVCLVCGEAGKEDTVEEVEGKFNLMLMECSICNEIIHPGCLKIKESEGVVNDELPNCWECPKC	-0.049 ± 0.082
LPHTAVCLVCGEAGKEDTVHEEEGKFNLMLMECSICNEIIHPGCLKIKESEGVVNDELPNCWECPKC	-0.176 ± 0.21
LPHTAVCLVCGEAGKEDTVPEEEGKFNLMLMECSICNEIIHPGCLKIKESEGVVNDELPNCWECPKC	-0.081 ± 0.16
LPHTAVCLVCGEAGKEDTVQEEEGKFNLMLMECSICNEIIHPGCLKIKESEGVVNDELPNCWECPKC	-0.126 ± 0.12
LPHTAVCLVCGEAGKEDTVREEEGKFNLMLMECSICNEIIHPGCLKIKESEGVVNDELPNCWECPKC	0.033 ± 0.07
LPHTAVCLVCGEAGKEDTVAEEEGKFNLMLMECSICNEIIHPGCLKIKESEGVVNDELPNCWECPKC	-0.046 ± 0.095

Variant	abundance fitness
LPHTAVCLVCGEAGKEDTVCEEEGKFNLMLMECSICNEIIHPGCLKIKESEGVVNDELPNCWECPKC	-0.105 ± 0.063
LPHTAVCLVCGEAGKEDTVFEEEGKFNLMLMECSICNEIIHPGCLKIKESEGVVNDELPNCWECPKC	-0.343 ± 0.12
LPHTAVCLVCGEAGKEDTVTEEEGKFNLMLMECSICNEIIHPGCLKIKESEGVVNDELPNCWECPKC	-0.169 ± 0.11
LPHTAVCLVCGEAGKEDTVLEEEGKFNLMLMECSICNEIIHPGCLKIKESEGVVNDELPNCWECPKC	-0.146 ± 0.074
LPHTAVCLVCGEAGKEDTVVEEEGKFNLMLMECSICNEIIHPGCLKIKESEGVVNDELPNCWECPKC	-0.03 ± 0.08
LPHTAVCLVCGEAGKEDTVDEEEGKFNLMLMECSICNEIIHPGCLKIKESEGVVNDELPNCWECPKC	-0.276 ± 0.23
LPHTAVCLVCGEAGKEDTVWEEEGKFNLMLMECSICNEIIHPGCLKIKESEGVVNDELPNCWECPKC	-0.4 ± 0.11
LPHTAVCLVCGEAGKEDTVSEEEGKFNLMLMECSICNEIIHPGCLKIKESEGVVNDELPNCWECPKC	-0.191 ± 0.093
LPHTAVCLVCGEAGKEDTVGEEEGKFNLMLMECSICNEIIHPGCLKIKESEGVVNDELPNCWECPKC	0.035 ± 0.098
LPHTAVCLVCGEAGKEDTVEEEDGKFNLMLMECSICNEIIHPGCLKIKESEGVVNDELPNCWECPKC	-0.016 ± 0.17
LPHTAVCLVCGEAGKEDTVEEEAGKFNLMLMECSICNEIIHPGCLKIKESEGVVNDELPNCWECPKC	0.004 ± 0.076
LPHTAVCLVCGEAGKEDTVEEECGKFNLMLMECSICNEIIHPGCLKIKESEGVVNDELPNCWECPKC	-0.193 ± 0.16
LPHTAVCLVCGEAGKEDTWEEEEGKFNLMLMECSICNEIIHPGCLKIKESEGVVNDELPNCWECPKC	-0.429 ± 0.17
LPHTAVCLVCGEAGKEDTIEEEEGKFNLMLMECSICNEIIHPGCLKIKESEGVVNDELPNCWECPKC	-0.131 ± 0.33
LPHTAVCLVCGEAGKEDTYEEEEGKFNLMLMECSICNEIIHPGCLKIKESEGVVNDELPNCWECPKC	-0.295 ± 0.18
LPHTAVCLVCGEAGKEDTAEEEEGKFNLMLMECSICNEIIHPGCLKIKESEGVVNDELPNCWECPKC	-0.049 ± 0.089
LPHTAVCLVCGEAGKEDTSEEEEGKFNLMLMECSICNEIIHPGCLKIKESEGVVNDELPNCWECPKC	-0.151 ± 0.13
LPHTAVCLVCGEAGKEDTGEEEEGKFNLMLMECSICNEIIHPGCLKIKESEGVVNDELPNCWECPKC	-0.193 ± 0.078
LPHTAVCLVCGEAGKEDTMEEEEGKFNLMLMECSICNEIIHPGCLKIKESEGVVNDELPNCWECPKC	-0.067 ± 0.22
LPHTAVCLVCGEAGKEDTREEEEGKFNLMLMECSICNEIIHPGCLKIKESEGVVNDELPNCWECPKC	0.056 ± 0.086
LPHTAVCLVCGEAGKEDTDEEEEGKFNLMLMECSICNEIIHPGCLKIKESEGVVNDELPNCWECPKC	-0.459 ± 0.23
LPHTAVCLVCGEAGKEDTHEEEEGKFNLMLMECSICNEIIHPGCLKIKESEGVVNDELPNCWECPKC	-0.24 ± 0.44
LPHTAVCLVCGEAGKEDTFEEEEGKFNLMLMECSICNEIIHPGCLKIKESEGVVNDELPNCWECPKC	0.151 ± 0.21
LPHTAVCLVCGEAGKEDTTEEEEGKFNLMLMECSICNEIIHPGCLKIKESEGVVNDELPNCWECPKC	0.013 ± 0.1
LPHTAVCLVCGEAGKEDTLEEEEGKFNLMLMECSICNEIIHPGCLKIKESEGVVNDELPNCWECPKC	0.017 ± 0.11
LPHTAVCLVCGEAGKEDTEEEEEGKFNLMLMECSICNEIIHPGCLKIKESEGVVNDELPNCWECPKC	-0.469 ± 0.13
